For assay [1], the target named is T1, Recombinant FcRn/b2M protein (human, UniProt P55899 24-297; P61769 21-119, limits assumed).
T1 construct: also called hFcRn/b2M; neonatal Fc receptor
Nature of the assay: SPR pH 6.0, FcRn/b2M immobilized, two-state reaction model. As to the method:
Recombinant FcRn/b2M protein was generated via transient transfection of HEK-293 cells with a bi-cistronic vector containing the genes for both FcRn and […]. The complex was purified using IMAC chromatography and subsequently buffer exchanged into IMAC elution buffer after verifying purity of the IMAC eluate by analytical SEC. hFcRn/b2M at 10 μg/ml in 10 mM sodium acetate (pH 4.5) was immobilized on a CM5 chip by direct amine coupling chemistry to a level of ˜600 RU. A reference flow cell was left blank.
Different concentrations of the Fc variant protein (5-80 nM by 2-fold dilutions in pH 6.0 running buffer) including running buffer as blank were injected in randomized order at 30 μL/min for 180 seconds followed by a 120 second dissociation period.
Sensorgrams obtained from kinetic SPR measurements were analyzed by the double subtraction method. The signal from the reference flow cell was subtracted from the analyte binding response obtained from flow cell with immobilized ligands. Buffer reference was subtracted from analyte binding responses, and the final double-referenced data were analyzed with Biacore T200 Evaluation software (2.0, GE), globally fitting data to derive kinetic parameters. All sensorgrams were fitted using two-state reaction model, as described in Weirong Wang et al, DrugMetab Dispos.: 39(9): 1469-77 (2011).

For another assay, the target named is T2, C1Q (UniProt P02745 23-245; P02746 28-253; P02747 29-245).
T2 construct: also called complement C1Q
As to the kind of experiment: SPR, Fc captured, C1Q as analyte. Here is the method:
Fc mutations to be potentially integrated into an ADAPTIR™ bispecific construct were analyzed for binding to the common Fc receptors (human and cyno) and C1Q, which is a component of the complement activation system. SPR experiments were conducted at 25° C. in HBS-EP+ buffer on a Biacore T200 system.
For these experiments, all four flow cells of a CM5 sensor chip were immobilized with goat F(ab′)2 anti-human Fc (Jackson ImmunoResearch) to a response level of ˜4000 RU. Fc variants and wild type Fc were diluted to 100 nM in HBS-EP+ and captured on the surface of the chip for 120 seconds at a flow rate of 10 μL/min. Fcγ receptors (human and cyno, all purchased from R&D Systems) and complement (C1Q, purchased from Quidel Corporation and Complement Technology, Inc) were diluted in HBS-EP+ and then flowed as analytes at 30 μL/min for 120 seconds followed by a 120 seconds dissociation. Regeneration was achieved by flowing 10 mM glycine pH 1.7 at 30 μL/min for 30 seconds followed by a 60 seconds stabilization. Flow cell 1 was always left as a blank (no captured protein) for purposes of background signal subtraction. Blank-subtracted sensorgrams for each captured Fc variant were inspected for the presence of binding to any of the Fcγ receptor proteins or complement. There are polymorphisms in the Human Fc receptors IIA and RIIIA, so both sequences were tested for binding.
For orientation: Surface plasmon resonance follows binding to a sensor surface in real time, without labels.

Assay [2] deals with T3, Full-length Human OX40 (human, UniProt P43489 29-277).
T3 construct: also called OXF001; human OX40/CHO
T3 sequence: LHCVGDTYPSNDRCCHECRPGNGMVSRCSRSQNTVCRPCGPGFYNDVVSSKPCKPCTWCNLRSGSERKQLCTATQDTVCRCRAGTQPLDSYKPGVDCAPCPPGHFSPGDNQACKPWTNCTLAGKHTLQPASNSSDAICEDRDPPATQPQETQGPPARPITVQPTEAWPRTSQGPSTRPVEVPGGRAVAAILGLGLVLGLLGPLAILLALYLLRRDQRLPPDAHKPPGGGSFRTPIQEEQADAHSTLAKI
Nature of the assay: flow cytometry, CHO cells expressing human OX40.

In another assay the target is T4, Human 4-1BB ECD-AFH (human).
T4 construct: entry includes the tags; also called FOB003; HUMAN CD137 ECD-AVI-FLAG-HIS
As to the kind of experiment: SPR (T200), construct captured, monomeric ECD as analyte. Here is the method:
(§1) Mouse anti-human IgG (GE, BR-1008-39) at 25 μg/ml in 10 mM sodium acetate pH 5.0 was immobilized at a density of ˜10,000 response units (RU) onto each flow cell of a CM5 research-grade sensor chip (GE) by standard amine coupling chemistry. Each binding protein at approximately 100 nM in HBS-EP+ with 0.2% BSA buffer was captured in a flow cell with the immobilized anti-human IgG at a flow rate of 10 μL/min for 20 seconds, leaving one flow cell surface unmodified as the reference. Using a single-cycle kinetics mode, five different concentrations of ECD were sequentially injected through each flow cell at 30 μL/min for 300 seconds followed by a 600 second dissociation period. Regeneration was achieved by injection of 3 M MgCl₂ at a flow rate of 30 μL/min for 30 seconds followed by HBS-EP+ with 0.2% BSA buffer stabilization for 1 min.
(§2) Sensorgrams obtained from kinetic SPR measurements were analyzed by the double subtraction method. The signal from the reference flow cell was subtracted from the analyte binding response obtained from flow cells with immobilized or captured ligands. Buffer reference responses were then averaged from multiple injections. The averaged buffer reference responses were then subtracted from analyte binding responses, and the final double-referenced data were analyzed with Biacore T200 Evaluation software (2.0, GE), globally fitting data to derive kinetic parameters. All sensorgrams were fitted using a simple one-to-one binding model.

The target of the next assay is T5, Human OX40 ECD-AFH (human).
T5 construct: ECD'; entry includes the C-terminal tags; also called OXF003; Human OX40 ECD-avi-flag-his
T5 chain: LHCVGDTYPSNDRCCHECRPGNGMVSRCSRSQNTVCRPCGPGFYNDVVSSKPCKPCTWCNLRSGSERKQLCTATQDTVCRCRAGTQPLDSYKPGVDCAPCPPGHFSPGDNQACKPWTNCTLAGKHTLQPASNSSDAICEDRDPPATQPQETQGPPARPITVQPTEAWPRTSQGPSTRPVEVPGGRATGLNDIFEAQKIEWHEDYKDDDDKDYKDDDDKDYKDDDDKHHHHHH
The description is as above. Here is the method: as §1, §2

Assay [3] deals with T3, Full-length Human OX40. Nature of the assay: cell-based or functional assay.
In the next assay the target is Full-length Human 4-1BB (human, UniProt Q07011 24-255). As to the kind of experiment: cell-based or functional assay.
Sequence of Full-length Human 4-1BB (Q07011 24-255): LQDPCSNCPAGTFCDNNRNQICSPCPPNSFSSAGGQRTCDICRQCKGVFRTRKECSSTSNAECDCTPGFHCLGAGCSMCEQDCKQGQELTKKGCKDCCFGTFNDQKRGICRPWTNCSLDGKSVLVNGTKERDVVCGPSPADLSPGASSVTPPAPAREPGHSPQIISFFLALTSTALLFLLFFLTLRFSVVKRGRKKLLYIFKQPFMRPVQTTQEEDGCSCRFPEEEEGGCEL

T4 sequence (chain, as listed by the source limits assumed): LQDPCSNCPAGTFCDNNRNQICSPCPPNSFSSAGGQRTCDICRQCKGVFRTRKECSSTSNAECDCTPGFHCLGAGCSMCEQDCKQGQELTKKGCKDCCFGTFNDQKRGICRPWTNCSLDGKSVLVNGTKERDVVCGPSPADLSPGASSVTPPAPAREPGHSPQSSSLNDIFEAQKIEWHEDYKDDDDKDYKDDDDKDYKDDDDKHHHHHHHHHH
T2 sequence (P02745 23-245 limits assumed, chain 1 of 3): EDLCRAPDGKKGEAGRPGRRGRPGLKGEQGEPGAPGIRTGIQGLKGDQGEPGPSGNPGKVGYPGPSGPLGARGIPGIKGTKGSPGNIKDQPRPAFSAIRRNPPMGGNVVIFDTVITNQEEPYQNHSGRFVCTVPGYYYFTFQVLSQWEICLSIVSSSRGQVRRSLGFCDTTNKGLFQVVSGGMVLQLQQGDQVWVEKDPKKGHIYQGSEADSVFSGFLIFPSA
T2 sequence (P02746 28-253 limits assumed, chain 2 of 3): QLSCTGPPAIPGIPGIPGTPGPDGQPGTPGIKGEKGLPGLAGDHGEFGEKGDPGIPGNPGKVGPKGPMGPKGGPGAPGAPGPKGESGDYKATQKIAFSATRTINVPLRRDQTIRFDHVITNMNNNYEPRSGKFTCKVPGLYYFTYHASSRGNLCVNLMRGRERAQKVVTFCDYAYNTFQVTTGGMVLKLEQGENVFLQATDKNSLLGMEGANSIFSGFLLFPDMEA
T2 sequence (P02747 29-245 limits assumed, chain 3 of 3): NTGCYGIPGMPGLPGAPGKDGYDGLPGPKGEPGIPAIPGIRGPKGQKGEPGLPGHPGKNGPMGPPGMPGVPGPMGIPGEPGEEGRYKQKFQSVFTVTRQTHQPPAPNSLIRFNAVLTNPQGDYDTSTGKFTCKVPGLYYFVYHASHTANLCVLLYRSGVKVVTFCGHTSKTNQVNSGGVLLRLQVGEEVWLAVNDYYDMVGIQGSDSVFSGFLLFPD
T1 sequence (P55899 24-297 limits assumed, chain 1 of 2): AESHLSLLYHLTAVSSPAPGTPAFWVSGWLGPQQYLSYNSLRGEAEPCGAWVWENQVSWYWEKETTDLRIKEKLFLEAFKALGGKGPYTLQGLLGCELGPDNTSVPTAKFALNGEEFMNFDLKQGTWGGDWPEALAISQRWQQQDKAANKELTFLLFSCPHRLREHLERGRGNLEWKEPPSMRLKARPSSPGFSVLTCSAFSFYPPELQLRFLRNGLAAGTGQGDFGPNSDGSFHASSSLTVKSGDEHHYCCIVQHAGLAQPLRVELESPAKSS
T1 sequence (P61769 21-119 limits assumed, chain 2 of 2): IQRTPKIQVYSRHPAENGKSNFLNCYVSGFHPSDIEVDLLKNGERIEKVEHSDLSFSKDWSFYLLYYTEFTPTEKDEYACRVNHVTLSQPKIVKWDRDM

B1: TSC 1005 (other)
chain: EPKSSDKTHTCPPCPAPPVAAPSVFLFPPKPKDTLMISRTPEVTCVVVDVSHEDPEVKFNWYVDGVEVHNAKTKPREEQYNSTYRVVSVLTVLHQDWLNGKEYKCAVSNKALPAPIEKTISKAKGQPREPQVYTLPPSRDELTKNQVSLTCLVKGFYPSDIAVEWESNGQPENNYKTTPPVLDSDGSFFLYSKLTVDKSRWQQGNVFSCSVMHEALHNHYTQKSLSLSPG
notes: IgG1 Fc with E233P, L234V, L235A, deletion of G236, G237A, K322A (EU); also called PVAdel TSC01005
Take B1: the Kd – broadly, the equilibrium constant for the complex coming apart – in assay [1] came out at 20 nM. In addition, the binding result with C1Q is “no binding”.

B2: FXX01066 (bispecific antibody)
chain: EVQLVQSGAEVKKPGASVKVSCKASGYTFTSYWMNWVRQAPGQGLEWMGNIYPSGGSTNYAQKFQGRVTMTVDTSTSTVYMELSSLRSEDTAVYYCASFSDGYYAYAMDYWGQGTLVTVSSGGGGSGGGGSGGGGSGGGGSEIVMTQSPATLSLSPGERATLSCRASQSVSSYLNWYQQKPGQAPRLLIYYASRRHTGIPARFSGSGSGTDFTLTISSLQPEDFAVYYCQQGYNLPYTFGQGTKVEIKEPKSSDKTHTCPPCPAPPAAAPSVFLFPPKPKDTLMISRTPEVTCVVVDVSHEDPEVKFNWYVDGVEVHNAKTKPREEQYNSTYRVVSVLTVLHQDWLNGKEYKCAVSNKALPAPIEKTISKAKGQPREPQVYTLPPSRDELTKNQVSLTCLVKGFYPSDIAVEWESNGQPENNYKTTPPVLDSDGSFFLYSKLTVDKSRWQQGNVFSCSVMHEALHNHYTQKSLSLSPGGGGSPSSYVLTQPPSVSVAPGQTARITCGGNNIGSKSVNWFQQKPGQAPVLVVYDDSGRPSGIPERFSGSTSGNTATLTISRVEAGDEADYYCQVWDSSSDHVVFGGGTKLTVLGGGGSGGGGSGGGGSGGGGSQVQLVESGGGVVQPGRSLRLSCAASGFTLSYYGMHWVRQAPGKGLEWVAAISHDGSDKYYADSVKGRFTISRDNSKNTLYLQMNSLRAEDTAVYYCSNDQFDPWGQGTLVTVSSR
notes: ADAPTIR scFv-Fc-scFv, anti-4-1BB (VH-VL) N-terminal, anti-OX40 C-terminal, PAA (del) Fc; also called FX01066
Consider B2, for which, in the assay with Full-length Human OX40 [2], a half-maximal effect (EC50) was put at 1.5 nM and the “Max MFI” value stood at 8620 MFI. In the assay with Human 4-1BB ECD-AFH, binding was put at a Kd of 14 nM; the koff (in general, a measure of how fast the partners let go of each other) was 0.0044 s⁻¹; the kon (commonly the rate constant with which the complex forms) is 300000 M⁻¹ s⁻¹. Further, in the assay with Human OX40 ECD-AFH, binding was characterised by a dissociation constant (Kd) of 0.4 nM, the koff worked out at 0.00014 s⁻¹ and the kon came to 380000 M⁻¹ s⁻¹. Also, in the assay with Full-length Human OX40 [3], the “OX40 Reporter Assay EC50” value was 0.012 nM and the “OX40 Reporter Assay Max induction” value came out at 534000. Moreover, in the assay with Full-length Human 4-1BB, the “4-1BB Reporter Assay EC50” value came out at 0.019 nM and the “4-1BB Reporter Assay Max induction” value is 6.1e+06.

These data come from US20220242962A1 (APTEVO RESEARCH AND DEVELOPMENT, published 2022).
